Measurements as given in patent publication US20170298146A1 (MODIQUEST B V, published 2017).
Non-standard residues stand in square brackets, D forms with d. No end group written: not given here. Cit = NC(=O)NCCC[C@H](N)C(=O)O

Columns and labels:
[1] = molecular target: T1, Histone 2A citrulline-containing peptide 5 (human, also: biotin label); experiment: peptide ELISA, 0.0023 ug/well
T1 peptide: VGRVH[Cit]LLRKGN
Experimental: (§1) Biotin and citrulline-containing peptides derived from histone 2A were immobilized on NEUTRAVIDIN®-coated 96-well ELISA plates (0.3 μg/well). CFC-1 and CFC-0 were coated at the same concentration and served as positive and negative controls respectively for specific anti-citrulline reactivity and as coating controls. Non-coated wells were used to test for aspecific binding of the antibodies. […] Detection of bound anti-citrulline antibodies was performed by incubating the wells with rabbit-anti-human-HRP (1:2000) for one hour at RT followed by incubation with TMB substrate. The resulting OD (y-axis) is a measure for antibody binding.
(§2) Ninety-six-well ELISA plates were coated with NEUTRAVIDIN® (0.1 μg/well) by overnight incubation at 4° C. Wells were washed five times with PBS-TWEEN®-20 (PBS-T) and blocked by a one-hour incubation with PBS-T+1% Bovine serum albumin (BSA) at room temperature (RT). After five more washes with PBS-T, wells were incubated for one hour at RT with histone-derived citrulline and biotin-containing peptides (0.3 μg/well). […] Wells were washed five times with PBS-T and incubated with rabbit-anti-human-HRP (1:2000) for one hour at RT followed by five washes with PBS-T and three wash steps with PBS. Wells were incubated for five minutes with TMB substrate before stopping the reaction with 2 M H₂SO₄. Optical density was measured by 450 nm and is a measure for the affinity of the antibodies used.

[2] = molecular target: T2, Histone 2A citrulline-containing peptide 1 (human, also: biotin label); experiment: peptide ELISA, 0.0023 ug/well
T2 construct: also called AAASGXGKQGGK
T2 peptide: AAASG[Cit]GKQGGK
Experimental: as §1, §2

[3] = molecular target: T3, Histone 2A citrulline-containing peptide 10 (human, also: biotin label); experiment: peptide ELISA, 0.0023 ug/well
T3 peptide: TRIIP[Cit]HLQLAI
Experimental: as §1, §2

[4] = molecular target: T4, Histone 2A citrulline-containing peptide 4 (human, also: biotin label); experiment: peptide ELISA, 0.0023 ug/well
T4 peptide: QFPVG[Cit]VHRLLR
Experimental: as §1, §2

[5] = molecular target: T5, Histone 2A citrulline-containing peptide 8 (human, also: biotin label); experiment: peptide ELISA, 0.0023 ug/well
T5 peptide: AGNAA[Cit]DNKKTR
Experimental: as §1, §2

[6] = molecular target: T6, Histone 2A citrulline-containing peptide 11 (human, also: biotin label); experiment: peptide ELISA, 0.0023 ug/well
T6 peptide: LQLAI[Cit]NDEELN
Experimental: as §1, §2

[7] = molecular target: T7, Histone 2A citrulline-containing peptide 12 (human, also: biotin label); experiment: peptide ELISA, 0.0023 ug/well
T7 peptide: NKLLG[Cit]VTIAQG
Experimental: as §1, §2

[8] = molecular target: T8, Histone 2A citrulline-containing peptide 7 (human, also: biotin label); experiment: peptide ELISA, 0.0023 ug/well
T8 peptide: GNYSE[Cit]VGAGAP
Experimental: as §1, §2

CFC-1 [9] = molecular target: T9, CFC-1; experiment: peptide ELISA, 0.0023 ug/well
T9 construct: Positive control for anti-citrulline reactivity; also called cfc1 XG
Experimental: as §1, §2

[10] = molecular target: T10, Histone 2A citrulline-containing peptide 2 (human, also: biotin label); experiment: peptide ELISA, 0.08 ug/well
T10 peptide: AKAKS[Cit]SSRAGL
Experimental: as §1, §2

[11] = molecular target: T1, Histone 2A citrulline-containing …; experiment: peptide ELISA, 0.08 ug/well
Experimental: as §1, §2

[12] = molecular target: T2, Histone 2A citrulline-containing …; experiment: peptide ELISA, 0.08 ug/well
Experimental: as §1, §2

[13] = molecular target: T4, Histone 2A citrulline-containing …; experiment: peptide ELISA, 0.08 ug/well
Experimental: as §1, §2

[14] = molecular target: T11, Histone 2A citrulline-containing peptide 3 (human, also: biotin label); experiment: peptide ELISA, 0.08 ug/well
T11 peptide: KSRSS[Cit]AGLQFP
Experimental: as §1, §2

[15] = molecular target: T5, Histone 2A citrulline-containing …; experiment: peptide ELISA, 0.08 ug/well
Experimental: as §1, §2

[16] = molecular target: T6, Histone 2A citrulline-containing …; experiment: peptide ELISA, 0.08 ug/well
Experimental: as §1, §2

[17] = molecular target: T12, Histone 2A citrulline-containing peptide 6 (human, also: biotin label); experiment: peptide ELISA, 0.08 ug/well
T12 peptide: VHRLL[Cit]KGNYSE
Experimental: as §1, §2

[18] = molecular target: T7, Histone 2A citrulline-containing …; experiment: peptide ELISA, 0.08 ug/well
Experimental: as §1, §2

CFC-1 [19] = molecular target: T9, CFC-1; experiment: peptide ELISA, 0.08 ug/well
Experimental: as §1, §2

[20] = molecular target: T13, human recombinant histone H2A (human); experiment: ELISA, 0.4 ug/well
T13 construct: Non-deiminated
Experimental: (§3) CFC-1 and CFC-0 were coated at the same concentration and served as positive and negative controls, respectively, for specific anti-citrulline reactivity and as coating controls. Non-coated wells were used to test for aspecific binding of the antibodies. […] Detection of bound anti-citrulline antibodies was performed by incubating the wells with rabbit-anti-human-HRP (1:2000) for one hour at RT followed by incubation with TMB substrate. The resulting OD (y-axis) is a measure for antibody binding. H1=recombinant histone 1; H1/p2=huPAD2 recombinant histone 1; H1/p4=huPAD4 recombinant histone 1 and so forth (x-axis).

[21] = molecular target: T14, huPAD4 deiminated human recombinant histone H2A (human); experiment: ELISA, 0.4 ug/well
T14 construct: also called H2A/p4; huPAD4 deiminated histone 2A
Experimental: as §3

[22] = molecular target: T15, huPAD4 deiminated human recombinant histone H2B (human); experiment: ELISA, 0.4 ug/well
T15 construct: also called H2B/p4
Experimental: as §3

[23] = molecular target: T16, huPAD2 deiminated human recombinant histone H2A (human); experiment: ELISA, 0.4 ug/well
T16 construct: also called H2A/p2
Experimental: as §3

[24] = molecular target: T17, huPAD2 deiminated human recombinant histone H2B (human); experiment: ELISA, 0.4 ug/well
T17 construct: also called H2B/p2
Experimental: as §3

[25] = molecular target: human recombinant histone H4 (human, UniProt P62805 2-103); experiment: ELISA, 0.4 ug/well
Experimental: as §3

[26] = molecular target: T18, huPAD4 deiminated human recombinant histone H3 (human); experiment: ELISA, 0.4 ug/well
T18 construct: also called H3/p4
Experimental: as §3

[27] = molecular target: T19, huPAD2 deiminated human recombinant histone H3 (human); experiment: ELISA, 0.4 ug/well
T19 construct: also called H3/p2
Experimental: as §3

CFC-1 [28] = molecular target: T9, CFC-1; experiment: ELISA, 0.4 ug/well
Experimental: as §3

B1: RhmAb2.102 (antibody, human IgG1, lambda)
heavy: not shown
light: QSVLTQPPSMSAAPGQKVTISCSGSSSNIGNNYVSWYQQVPGTAPKLLIYDDNKRPSGIPGRFSGSKSATSATLGITGLQAGDEADYYCGSWDDNLSVVLFGGGTKLTVLGQPKAAPSVTLFPPSSEELQANKATLVCLISDFYPGAVTVAWKADSSPVKAGVETTTPSKQSNNKYAASSYLSLTPEQWKSHRSYSCQVTHEGSTVEKTVAPTECS
notes: Human IgG1 lambda; also called Rhm2.102
- OD [1]: 0.063 OD
- OD [2]: 0.3 OD
- OD [3]: 0.068 OD
- OD [4]: 0.078 OD
- OD [5]: 0.06 OD
- OD [6]: 0.057 OD
- OD [7]: 0.059 OD
- OD [8]: 0.064 OD
- OD (CFC-1 [9]): 0.916 OD
- OD [10]: 0.086 OD
- OD [11]: 0.066 OD
- OD [12]: 2.04 OD
- OD [13]: 0.192 OD
- OD [14]: 0.091 OD
- OD [15]: 0.06 OD
- OD [16]: 0.064 OD
- OD [17]: 0.123 OD
- OD [18]: 0.06 OD
- OD (CFC-1 [19]): 2.66 OD
- OD [20]: 0.071 OD
- OD [21]: 2.72 OD
- OD [22]: 0.054 OD
- OD [23]: 3.08 OD
- OD [24]: 0.06 OD
- OD [25]: 0.091 OD
- OD [26]: 0.166 OD
- OD [27]: 1.18 OD
- OD (CFC-1 [28]): 3.12 OD
